{
  "source": "the DeepSol protein solubility set",
  "test": "soluble on expression in E. coli; label from the status in PepcDB or PDB records",
  "data": [
    {"sequence": "GPHMDAATLTYDTLRFAEFEDFPETSEPVWILGRKYSIFTEKDEILSDVASRLWFTYRKNFPAIGGTGPTSDTGWGCMLRCGQMIFAQALVCRHLGRDWRWTQRKRQPDSYFSVLNAFIDRKDSYYSIHQIAQMGVGEGKSIGQWYGPNTVAQVLKKLAVFDTWSSLAVHIAMDNTVVMEEIRRLCRTSVPCAGATAFPADSDRHCNGFPAGAEVTNRPSPWRPLVLLIPLRLGLTDINEAYVETLKHCFMMPQSLGVIGGKPNSAHYFIGYVGEELIYLDPHTTQPAVEPTDGCFIPDESFHCQHPPCRMSIAELDPSIAVGFFCKTEDDFNDWCQQVKKLSLLGGALPMFELVEQQPSHLACPDVLNLSLDSSDVERLERFFDSEDEDFEILSL", "values": [
      {"measurement": "soluble on expression in E. coli", "result": "soluble"}
    ]},
    {"sequence": "MSVSSEISASKLPYVRIPGSKPVPRLLKWTIFKCSFMKIRTIGLHHPDGRLYFFEFCQGKDTFVPHVCSACLPIITEKDLFPDYIVWAEEIEDYVIFAFSSMSNKMEQFVYSFETRRFVEVDLPELVYNRGDATTGDIVAALYGENETIVIERDENGAMLIRSFVHKDNSRKPVNTLVMQNIEKNGLQVGKDEEVTDISNEFGYLDYVETLPELKIKTCSANRTSIHVFSKKTGRYLKYHYVINTGSFINTSNLDCSNCNSVTSEKYLLPEYSVYSKALDARVIHCTNNLTSDIEQYTFNPDTNAFEQVYCKELVYDPNRFNRASLAAYVFPENVANNGTVIISRDVYEVIQKEKYSIVTDEYVVLPAAPVKTFAVRIQEEKQKKLDEEEQQKVLKTQELEKQKDGQIVIMELEMKEMTTLLEEKDTRIKMHVEKHRDKECELELVRRKLDDCVVRMQGAFERDIKLEEAKVQASREAKKQYENLMTILGEKE", "values": [
      {"measurement": "soluble on expression in E. coli", "result": "not soluble"}
    ]},
    {"sequence": "MELPPKVKNILLLDSEGKRVAVKYYSDDWPTNSAQEAFEKSVFTKTQKTNARTEVEVTALENNIVVYKFVQDLHFFVTGGEEENELILASVLEGLFDAVTLLLRSNVDKREALDNLDLIFLSFDEIIDGGIVLETDANVIAGKAGINSTDPNAPLSEQTISQALATAREHLTRSLMK", "values": [
      {"measurement": "soluble on expression in E. coli", "result": "soluble"}
    ]},
    {"sequence": "AQAALKDGTYSVDYTVLQGDSDSVSMANDYFDKPATVTVNGGKSTVSLQVNHSKWITGLWVEGNAVSVTSKNTASDTRKVSFPVSTLSSPVNAKIKVDIDDDGLNYHHEYQIQLRFDEGAVKSSGAAV", "values": [
      {"measurement": "soluble on expression in E. coli", "result": "not soluble"}
    ]},
    {"sequence": "MKTASYAQSFSRAAKEYDAYAYLQQTVARELASWIEGMECESILDLGCGTGALWRALRFKPRFFTGVDLSMEMLDLHPQDPAIRLIQSDFNHPSLYEHSYDLIAASSSLQWSRDLAQSFDLIAKSAQNVAFAIFTSESLWEIHDYVDSHSPIPSKERIESLLKERFAGEFELKRYPLSFPSRVAMLSYLKGSGISGGRRLGFAQSKKLIQSAPFERLTFEVLFFVGKPLKADQK", "values": [
      {"measurement": "soluble on expression in E. coli", "result": "not soluble"}
    ]},
    {"sequence": "SDKVINPQVAWAQRSSTTDPERNYVLITVSIADCDAPELTIKPSYIELKAQSKPHVGDENVHHYQLHIDLYKEIIPEKTMHKVANGQHYFLKLYKKDLESEYWPRLTKEKVKYPYIKTDFDKWVDADEQDEVEA", "values": [
      {"measurement": "soluble on expression in E. coli", "result": "soluble"}
    ]},
    {"sequence": "GSPEFMELEIRPLFLVPDTNGFIDHLASLARLLESRKYILVVPLIVINELDGLAKGQETDHRAGGYARVVQEKARKSIEFLEQRFESRDSCLRALTSRGNELESIAFRSEDITGQLGNNDDLILSCCLHYCKDKAKDFMPASKEEPIRLLREVVLLTDDRNLRVKALTRNVPVRDIPAFLTWAQVG", "values": [
      {"measurement": "soluble on expression in E. coli", "result": "soluble"}
    ]},
    {"sequence": "STQDADRTLKRLQLQMDNLESRVALECKEAFAELQTDINELTNHMDGVQIPFLDYRTYAVRVLFPGIEAHPVLKELDTPPNVEKALRLFGQLLHSRAFLLTFIHTLEAQSSFSMRDRGTVASLTMVALQSRLDYATGLLKQLLADLIEKNLESKNHPKLLLRRTESVAEKMLTNWFTFLLHKFLKECAGEPLFLLYCAIKQQMEKGPIDAITGEARYSLSEDKLIRQQIDYKTLTLHCVCPESEGSAQVPVKVLNCDSITQAKDKLLDTVYKGIPYSQRPKAEDMDLEWRQGRMARIILQDEDITTKIECDWKRVNSLAHYQVTDGSLVALVPKQVSAYNMANSFTFTRSLSRYESLLRAASSPDSLRSRAPMLTPDQEAGTKLWHLVRNHDHTDHREGDRGSKMVSEIYLTRLLATKGTLQKFVDDLFETVFSTAHRGSALPLAIKYMFDFLDEQADQRQISDPDVRHTWKSNCLPLRFWVNVIKNPQFVFDIHKNSITDACLSVVAQTFMDSCSTSEHRLGKDSPSNKLLYAKDIPNYKSWVERYYRDIAKMASISDQDMDAYLVEQSRLHANDFNVLSALSELYFYVTKYRQEILTSLDRDASCRKHKLRQKLEQIITLVSSSS", "values": [
      {"measurement": "soluble on expression in E. coli", "result": "soluble"}
    ]},
    {"sequence": "MVSGYTQSEIDSIAGWLRAGDSASKAAAKLSTMRGRAVSRNAIIGIVHRNAKLAAIGFGRAKSSPASEGSSTYTPEEIKLVADCLKAKRNYVQIAQRLALKSGRIISRFGVKSLIRRTPELNEIGFRGKKGRPSDKKKAAPGQLPGRLFIAATADIDRDPSAFDYLTRPAVRALASQPHFAAMRFVDCLPARCRAPLSYDLEERPGPDMLCCGHLAMPSRSYCAYHEIRLTARKAEFIAEAALEHHHHHH", "values": [
      {"measurement": "soluble on expression in E. coli", "result": "soluble"}
    ]},
    {"sequence": "MSSSLLASLSRLSLLQTRQIHQTIPAGSSVFMKRQKKIDPEVAKQRETRRRKRLEKDIRQMQKHSKKPKPVDELTLDVKSAKNIGERRRPRTELTLEQIDERAIALKDYTRSRLALQQEDDAWIRGAIESQRKALNELKMLKLELYEAAVQPAAKDLPLIVQGPSLTPPIRNYEAPDGDYIDTTRNWAS", "values": [
      {"measurement": "soluble on expression in E. coli", "result": "not soluble"}
    ]},
    {"sequence": "MIDTLKNIKVKDVMTKNVITAKRHEGVVEAFEKMLKYKISSLPVIDDENKVIGIVTTTDIGYNLIRDKYTLETTIGDVMTKDVITIHEDASILEAIKKMDISGKKEEIINQLPVVDKNNKLVGIISDGDIIRTISKII", "values": [
      {"measurement": "soluble on expression in E. coli", "result": "soluble"}
    ]},
    {"sequence": "LIERIEGFEPQWWEQGGAKPEKPEMREPRQRNRYESAKAQREKNTRPENAANDAGAACGKIAGRSRRSRREHRTCALLQPRYGVK", "values": [
      {"measurement": "soluble on expression in E. coli", "result": "soluble"}
    ]},
    {"sequence": "MNNTYNEKTHTLIKQLLKKFSPKVPGFAYMASFDSGVTYKGAVGLASIEENLPITTKSVFNIASVSKQFTAFSILLLEQEGRLSLDDSIVKFVPSIGTYAEPVTLRHLIHHTGGLVDYMELAHAENIEFTDILTVEQSLKHLNGHQIARFPVGTKFEYSNTGYFLLSLVVEKVSGKSLRQFAKERIFDSLNMKDTTIVDCYPTTISIARGYSKNEQGAYMVYESPWEHTGDGAVHATVEDLVKWGENLTTGTVGGKELVKRMSEIGPEISPTRETIIANEDYAFGLRLAEGFNCRYLEHSGSWAGYRSYFMRFPKEYLTVVVLSNYDGFDSKKYANEIAGIILEK", "values": [
      {"measurement": "soluble on expression in E. coli", "result": "not soluble"}
    ]},
    {"sequence": "MGHHHHHHSHDKAIKETSILEEYSINWTQKLGAGISGPVRVCVKKSTQERFALKILLDRPKARNEVRLHMMCATHPNIVQIIEVFANSVQFPHESSPRARLLIVMEMMEGGELFHRISQHRHFTEKQASQVTKQIALALRHCHLLNIAHRDLKPENLLFKDNSLDAPVKLCDFGFAKIDQGDLMTPQFTPYYVAPQVLEAQRRHQKEKSGIIPTSPTPYTYNKSCDLWSLGVIIYVMLCGYPPFYSKHHSRTIPKDMRRKIMTGSFEFPEEEWSQISEMAKDVVRKLLKVKPERRLTIEGVLDHPWLNSTEALDNVLPSAQLMMDKAVVAGIQQAHAEQLANMRIQDLKVSLKPLHSVNNPILRKRKLLGTKPKDSVYIHDHENGAEDSNVALEKLRDVIAQCILPQAGENEDEKLNEVMQEAWKYNRECKLLRDTLQSFSWNGRGFTDKVDRLKLAEIVKQVIEEQT", "values": [
      {"measurement": "soluble on expression in E. coli", "result": "soluble"}
    ]},
    {"sequence": "MGSDKIHHHHHHMLHQANRTGASTRVEFILPDSIEGYIPLKADLHLHTYFSDGHLSPSARVREAWLDGLDAISVTDHIEYHPADTDMIGYLGATLPDGIEAHNVNKKTNVKPKQDLNKSVELTKKAAVSYGLLIIPGIEITREPKGIGHYNALFTTDNNGIYDPDPLTAIRNAKAQGALVMHNHPGWRRESIQHPDFELKAYGEGLIDGIEANNGTAFCPGTIDRAKEDNLFVASTTDLHDTSFEEYIGRGLRRDMTIILAKDRSLDAMRDALENRRTIGYGAGGTLMGQEYLLRQLFMSCVSISPVNGHNIQLKNPTSLRFIIHPDGKNPIVLPEFSSIILSDKDRGFSVDNAWTGADSFLRISL", "values": [
      {"measurement": "soluble on expression in E. coli", "result": "not soluble"}
    ]}
  ]
}
